Starred links: 1 amine or outer side, 2 acyl side, 3 side chain; linkers in the order of their positions; H or OH if unused. Non-standard residues stand in square brackets, D forms with d. Groups on a side chain read outwards from the residue. No end group written: not given here. *: point of attachment. C20 diacid = O=C(O)CCCCCCCCCCCCCCCCCCC(=O)*; C18 diacid = O=C(O)CCCCCCCCCCCCCCCCC(=O)*; γGlu = O=C(O)[C@H](CCC(=O)[*:2])N[*:1]; AEEA = NCCOCCOCC(=O)O; Aib = CC(C)(N)C(=O)O
T1: anti-target CRF1R receptor (UniProt P34998 24-415, limits assumed)
T1 sequence (looked up): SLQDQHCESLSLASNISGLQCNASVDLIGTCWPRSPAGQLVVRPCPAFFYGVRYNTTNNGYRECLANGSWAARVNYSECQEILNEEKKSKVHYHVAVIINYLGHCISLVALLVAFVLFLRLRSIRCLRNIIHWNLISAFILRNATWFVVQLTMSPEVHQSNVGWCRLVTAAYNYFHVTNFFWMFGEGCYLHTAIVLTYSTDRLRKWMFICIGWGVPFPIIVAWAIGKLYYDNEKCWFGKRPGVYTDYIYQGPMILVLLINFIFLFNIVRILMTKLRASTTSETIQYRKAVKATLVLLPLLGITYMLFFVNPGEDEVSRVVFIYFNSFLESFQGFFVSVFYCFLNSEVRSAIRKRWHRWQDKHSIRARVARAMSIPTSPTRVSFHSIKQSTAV

B1: peptide of SEQ ID NO: 80 (peptide)
peptide: IVLSLDVPTKLK([AEEA-AEEA-γGlu-C20 diacid])QILLEQERQKKQREQAETN[Aib]QILAQV-NH2
modifications: N-terminus assumed
SMILES: CC[C@H](C)[C@H](N)C(=O)N[C@H](C(=O)N[C@@H](CC(C)C)C(=O)N[C@@H](CO)C(=O)N[C@@H](CC(C)C)C(=O)N[C@@H](CC(=O)O)C(=O)N[C@H](C(=O)N1CCC[C@H]1C(=O)N[C@H](C(=O)N[C@@H](CCCCN)C(=O)N[C@@H](CC(C)C)C(=O)N[C@@H](CCCCNC(=O)COCCOCCNC(=O)COCCOCCNC(=O)CC[C@H](NC(=O)CCCCCCCCCCCCCCCCCCC(=O)O)C(=O)O)C(=O)N[C@@H](CCC(N)=O)C(=O)N[C@H](C(=O)N[C@@H](CC(C)C)C(=O)N[C@@H](CC(C)C)C(=O)N[C@@H](CCC(=O)O)C(=O)N[C@@H](CCC(N)=O)C(=O)N[C@@H](CCC(=O)O)C(=O)N[C@@H](CCCNC(=N)N)C(=O)N[C@@H](CCC(N)=O)C(=O)N[C@@H](CCCCN)C(=O)N[C@@H](CCCCN)C(=O)N[C@@H](CCC(N)=O)C(=O)N[C@@H](CCCNC(=N)N)C(=O)N[C@@H](CCC(=O)O)C(=O)N[C@@H](CCC(N)=O)C(=O)N[C@@H](C)C(=O)N[C@@H](CCC(=O)O)C(=O)N[C@H](C(=O)N[C@@H](CC(N)=O)C(=O)NC(C)(C)C(=O)N[C@@H](CCC(N)=O)C(=O)N[C@H](C(=O)N[C@@H](CC(C)C)C(=O)N[C@@H](C)C(=O)N[C@@H](CCC(N)=O)C(=O)N[C@H](C(N)=O)C(C)C)[C@@H](C)CC)[C@@H](C)O)[C@@H](C)CC)[C@@H](C)O)C(C)C)C(C)C
B2: peptide of SEQ ID NO: 86 (peptide)
peptide: IVLSLDVPIKLK([AEEA-AEEA-γGlu-C18 diacid])QILLKQERQKKQREQAKTNKQILAQV-NH2
modifications: N-terminus assumed
SMILES: CC[C@H](C)[C@H](N)C(=O)N[C@H](C(=O)N[C@@H](CC(C)C)C(=O)N[C@@H](CO)C(=O)N[C@@H](CC(C)C)C(=O)N[C@@H](CC(=O)O)C(=O)N[C@H](C(=O)N1CCC[C@H]1C(=O)N[C@H](C(=O)N[C@@H](CCCCN)C(=O)N[C@@H](CC(C)C)C(=O)N[C@@H](CCCCNC(=O)COCCOCCNC(=O)COCCOCCNC(=O)CC[C@H](NC(=O)CCCCCCCCCCCCCCCCC(=O)O)C(=O)O)C(=O)N[C@@H](CCC(N)=O)C(=O)N[C@H](C(=O)N[C@@H](CC(C)C)C(=O)N[C@@H](CC(C)C)C(=O)N[C@@H](CCCCN)C(=O)N[C@@H](CCC(N)=O)C(=O)N[C@@H](CCC(=O)O)C(=O)N[C@@H](CCCNC(=N)N)C(=O)N[C@@H](CCC(N)=O)C(=O)N[C@@H](CCCCN)C(=O)N[C@@H](CCCCN)C(=O)N[C@@H](CCC(N)=O)C(=O)N[C@@H](CCCNC(=N)N)C(=O)N[C@@H](CCC(=O)O)C(=O)N[C@@H](CCC(N)=O)C(=O)N[C@@H](C)C(=O)N[C@@H](CCCCN)C(=O)N[C@H](C(=O)N[C@@H](CC(N)=O)C(=O)N[C@@H](CCCCN)C(=O)N[C@@H](CCC(N)=O)C(=O)N[C@H](C(=O)N[C@@H](CC(C)C)C(=O)N[C@@H](C)C(=O)N[C@@H](CCC(N)=O)C(=O)N[C@H](C(N)=O)C(C)C)[C@@H](C)CC)[C@@H](C)O)[C@@H](C)CC)[C@@H](C)CC)C(C)C)C(C)C
B3: peptide of SEQ ID NO: 83 (peptide)
peptide: IVLSLD[dV]PIGLK([AEEA-AEEA-γGlu-C18 diacid])QILLKQERQKK[Aib]REQAETNKRILERV-NH2
modifications: N-terminus assumed
SMILES: CC[C@H](C)[C@H](N)C(=O)N[C@H](C(=O)N[C@@H](CC(C)C)C(=O)N[C@@H](CO)C(=O)N[C@@H](CC(C)C)C(=O)N[C@@H](CC(=O)O)C(=O)N[C@@H](C(=O)N1CCC[C@H]1C(=O)N[C@H](C(=O)NCC(=O)N[C@@H](CC(C)C)C(=O)N[C@@H](CCCCNC(=O)COCCOCCNC(=O)COCCOCCNC(=O)CC[C@H](NC(=O)CCCCCCCCCCCCCCCCC(=O)O)C(=O)O)C(=O)N[C@@H](CCC(N)=O)C(=O)N[C@H](C(=O)N[C@@H](CC(C)C)C(=O)N[C@@H](CC(C)C)C(=O)N[C@@H](CCCCN)C(=O)N[C@@H](CCC(N)=O)C(=O)N[C@@H](CCC(=O)O)C(=O)N[C@@H](CCCNC(=N)N)C(=O)N[C@@H](CCC(N)=O)C(=O)N[C@@H](CCCCN)C(=O)N[C@@H](CCCCN)C(=O)NC(C)(C)C(=O)N[C@@H](CCCNC(=N)N)C(=O)N[C@@H](CCC(=O)O)C(=O)N[C@@H](CCC(N)=O)C(=O)N[C@@H](C)C(=O)N[C@@H](CCC(=O)O)C(=O)N[C@H](C(=O)N[C@@H](CC(N)=O)C(=O)N[C@@H](CCCCN)C(=O)N[C@@H](CCCNC(=N)N)C(=O)N[C@H](C(=O)N[C@@H](CC(C)C)C(=O)N[C@@H](CCC(=O)O)C(=O)N[C@@H](CCCNC(=N)N)C(=O)N[C@H](C(N)=O)C(C)C)[C@@H](C)CC)[C@@H](C)O)[C@@H](C)CC)[C@@H](C)CC)C(C)C)C(C)C
B4: peptide of SEQ ID NO: 85 (peptide)
peptide: IVLSLDVPIKLK([AEEA-AEEA-γGlu-C18 diacid])QILLKQERQKKQREQAETNKQILAQV-NH2
modifications: N-terminus assumed
SMILES: CC[C@H](C)[C@H](N)C(=O)N[C@H](C(=O)N[C@@H](CC(C)C)C(=O)N[C@@H](CO)C(=O)N[C@@H](CC(C)C)C(=O)N[C@@H](CC(=O)O)C(=O)N[C@H](C(=O)N1CCC[C@H]1C(=O)N[C@H](C(=O)N[C@@H](CCCCN)C(=O)N[C@@H](CC(C)C)C(=O)N[C@@H](CCCCNC(=O)COCCOCCNC(=O)COCCOCCNC(=O)CC[C@H](NC(=O)CCCCCCCCCCCCCCCCC(=O)O)C(=O)O)C(=O)N[C@@H](CCC(N)=O)C(=O)N[C@H](C(=O)N[C@@H](CC(C)C)C(=O)N[C@@H](CC(C)C)C(=O)N[C@@H](CCCCN)C(=O)N[C@@H](CCC(N)=O)C(=O)N[C@@H](CCC(=O)O)C(=O)N[C@@H](CCCNC(=N)N)C(=O)N[C@@H](CCC(N)=O)C(=O)N[C@@H](CCCCN)C(=O)N[C@@H](CCCCN)C(=O)N[C@@H](CCC(N)=O)C(=O)N[C@@H](CCCNC(=N)N)C(=O)N[C@@H](CCC(=O)O)C(=O)N[C@@H](CCC(N)=O)C(=O)N[C@@H](C)C(=O)N[C@@H](CCC(=O)O)C(=O)N[C@H](C(=O)N[C@@H](CC(N)=O)C(=O)N[C@@H](CCCCN)C(=O)N[C@@H](CCC(N)=O)C(=O)N[C@H](C(=O)N[C@@H](CC(C)C)C(=O)N[C@@H](C)C(=O)N[C@@H](CCC(N)=O)C(=O)N[C@H](C(N)=O)C(C)C)[C@@H](C)CC)[C@@H](C)O)[C@@H](C)CC)[C@@H](C)CC)C(C)C)C(C)C

What follows are binders tested against rat CRF2R α receptor (rat, UniProt P47866 20-411) (assay: cell-based or functional assay).
Chain of rat CRF2R α receptor (P47866 20-411): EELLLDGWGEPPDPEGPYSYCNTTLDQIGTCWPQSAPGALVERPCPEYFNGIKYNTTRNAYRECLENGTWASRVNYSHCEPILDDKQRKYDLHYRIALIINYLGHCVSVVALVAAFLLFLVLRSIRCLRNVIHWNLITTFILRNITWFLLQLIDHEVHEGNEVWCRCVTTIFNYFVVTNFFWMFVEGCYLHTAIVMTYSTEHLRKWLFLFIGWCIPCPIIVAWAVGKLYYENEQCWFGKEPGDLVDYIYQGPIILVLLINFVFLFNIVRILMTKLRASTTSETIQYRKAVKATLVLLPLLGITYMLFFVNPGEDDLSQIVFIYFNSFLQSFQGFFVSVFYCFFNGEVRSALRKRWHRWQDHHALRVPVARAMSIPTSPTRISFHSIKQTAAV

EC50 [nM], 0% HSA (cAMP, A7R5 cells) [nM] | Binder
5.2 | B1
0.69 | B2
1.83 | B3
0.73 | B4

What follows are binders tested against T1, anti-target CRF1R receptor (assay: cell-based or functional assay).

EC50[nM] 0% HSA (cAMP, CRF1R-overexpression CHO cells) [nM] | Emax (%) (cAMP, CRF1R-overexpression CHO cells) | Binder
> 1000 | 12.7 | B1
> 1000 | 15.9 | B2
> 1000 | 7.51 | B3
> 1000 | 0.14 | B4
